Measurements taken from article PMC5156837.

Biological target: GST-TOC34 fusion protein (Arabidopsis thaliana) (UniProt Q38906)
Chain of UniProt Q38906 (Q38906 whole entry, the tested form may be a part): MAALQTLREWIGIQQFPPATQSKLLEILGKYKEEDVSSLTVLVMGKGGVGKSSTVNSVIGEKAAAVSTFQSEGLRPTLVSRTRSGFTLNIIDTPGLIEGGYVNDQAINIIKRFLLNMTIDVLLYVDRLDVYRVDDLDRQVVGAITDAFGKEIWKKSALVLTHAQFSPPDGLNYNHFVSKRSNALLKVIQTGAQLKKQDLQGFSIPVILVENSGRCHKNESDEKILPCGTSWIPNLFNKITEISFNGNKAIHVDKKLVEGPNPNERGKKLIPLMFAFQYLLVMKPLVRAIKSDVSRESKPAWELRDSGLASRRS

CBL10-cMyc (thrombin-cleaved from GST-CBL10-cMyc) (from UniProt Q7FRS8 1-256)
GTPase activity of TOC34 (free phosphate from GTP, 27°C, 30 min) with CBL10 and 5 mM CaCl2: 0.5 fold
